Publication PMC4215538, “A clathrin coat assembly role for the muniscin protein central linker revealed by TALEN-mediated gene editing” (eLife, 2014)

Target: T1, AP-2 α appendage (mouse, UniProt P17427 701-938)
T1 construct: AP-2 αC subunit appendage, mouse, residues 701–938; It was added soluble to glutathione-Sepharose pull-downs, so GST was probably removed; also called αC appendage (mouse residues 701–938); purified AP-2 α appendage; source: purified (from the GST-αC appendage construct described previously)
T1 sequence (P17427 701-938): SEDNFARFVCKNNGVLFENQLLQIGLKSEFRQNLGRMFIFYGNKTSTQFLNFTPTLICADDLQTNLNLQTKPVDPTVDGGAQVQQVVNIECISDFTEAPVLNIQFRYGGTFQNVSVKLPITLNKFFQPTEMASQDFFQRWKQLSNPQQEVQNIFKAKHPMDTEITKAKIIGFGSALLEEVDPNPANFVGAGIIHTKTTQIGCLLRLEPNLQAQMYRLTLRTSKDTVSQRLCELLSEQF
Experiment: pull-down; ~200 μg GST fusion on glutathione-Sepharose; rat brain cytosol supplemented with 5 μM or 25 μM purified AP-2 α appendage; recovery of the added α appendage in the pellets
Conditions: both partners purified

B1: GST-EPS15 (595–740) (domain or fragment, UniProt P42566 595-740, looked up)
chain: SKEEDPFNVDSSSLTGPVADTNLDFFQSDPFVGSDPFKDDPFGKIDPFGGDPFKGSDPFASDCFFRQSTDPFATSSTDPFSAANNSSITSVETLKHNDPFAPGGTVVAASDSATDPFASVFGNESFGGGFADFSTLSKVNNEDPFR
notes: also called GST-EPS15 fusion; C-terminal region of EPS15; source: purified GST fusion (purification described in Umasankar et al., 2012)
B1: binds.
